T1: GST-TyrRS fusion protein, wild type, full length (human, UniProt P54577 1-528)
T1 sequence: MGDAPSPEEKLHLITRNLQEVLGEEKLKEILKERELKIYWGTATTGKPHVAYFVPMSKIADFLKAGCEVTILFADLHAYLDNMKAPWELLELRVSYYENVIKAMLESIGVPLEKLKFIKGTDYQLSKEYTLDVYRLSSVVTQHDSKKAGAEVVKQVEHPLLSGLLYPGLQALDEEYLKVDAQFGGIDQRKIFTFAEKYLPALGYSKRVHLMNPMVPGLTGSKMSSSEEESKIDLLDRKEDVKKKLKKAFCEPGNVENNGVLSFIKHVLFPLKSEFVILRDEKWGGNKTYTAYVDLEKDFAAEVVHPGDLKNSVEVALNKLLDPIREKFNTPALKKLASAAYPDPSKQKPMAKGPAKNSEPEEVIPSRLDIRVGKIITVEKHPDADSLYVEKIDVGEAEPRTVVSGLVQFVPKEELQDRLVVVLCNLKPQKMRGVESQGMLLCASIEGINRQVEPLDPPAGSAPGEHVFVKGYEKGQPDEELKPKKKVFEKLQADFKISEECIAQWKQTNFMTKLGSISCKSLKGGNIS

T2: GST-TyrRS Δ153-156 fusion protein, full length (human, UniProt P54577 1-528, Δ153-156VKQV)
T2 sequence: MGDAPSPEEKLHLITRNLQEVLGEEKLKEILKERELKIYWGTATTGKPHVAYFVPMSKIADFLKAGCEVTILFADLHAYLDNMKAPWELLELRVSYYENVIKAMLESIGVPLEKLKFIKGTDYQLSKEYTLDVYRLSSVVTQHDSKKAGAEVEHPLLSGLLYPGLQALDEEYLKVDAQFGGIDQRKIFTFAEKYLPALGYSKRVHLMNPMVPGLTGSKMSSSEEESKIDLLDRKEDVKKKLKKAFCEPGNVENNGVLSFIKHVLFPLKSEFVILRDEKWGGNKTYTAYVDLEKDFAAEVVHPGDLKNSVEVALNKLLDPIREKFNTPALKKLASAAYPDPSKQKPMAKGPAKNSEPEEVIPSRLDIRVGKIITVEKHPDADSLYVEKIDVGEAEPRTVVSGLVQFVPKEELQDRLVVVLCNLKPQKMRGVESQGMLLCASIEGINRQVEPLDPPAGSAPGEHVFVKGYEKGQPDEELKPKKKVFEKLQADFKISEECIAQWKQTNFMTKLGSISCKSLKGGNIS

T3: GST-TyrRS E196K fusion protein, full length (human, UniProt P54577 1-528, E196K)
T3 sequence: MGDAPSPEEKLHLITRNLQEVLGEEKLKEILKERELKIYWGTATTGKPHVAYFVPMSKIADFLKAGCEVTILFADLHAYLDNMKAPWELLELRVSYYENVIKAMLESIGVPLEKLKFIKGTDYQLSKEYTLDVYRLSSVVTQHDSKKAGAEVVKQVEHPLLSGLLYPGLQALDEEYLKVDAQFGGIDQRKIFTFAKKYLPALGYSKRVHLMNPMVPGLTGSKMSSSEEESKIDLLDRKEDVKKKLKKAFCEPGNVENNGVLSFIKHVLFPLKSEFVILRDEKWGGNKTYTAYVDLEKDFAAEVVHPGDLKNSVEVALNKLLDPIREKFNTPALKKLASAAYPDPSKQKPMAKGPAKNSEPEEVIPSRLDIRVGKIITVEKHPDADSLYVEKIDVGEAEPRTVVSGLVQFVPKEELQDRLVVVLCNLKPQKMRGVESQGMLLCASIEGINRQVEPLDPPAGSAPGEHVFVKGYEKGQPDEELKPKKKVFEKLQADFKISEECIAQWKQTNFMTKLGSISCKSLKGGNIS


Columns and labels:
SAXS = target: the molecule itself; assay: SAXS
SEC = target: the molecule itself; assay: SEC
[1] = target: T1, GST-TyrRS fusion protein, wild type, …; assay: BLI
[2] = target: T2, GST-TyrRS Δ153-156 fusion protein, full …; assay: BLI
[3] = target: T3, GST-TyrRS E196K fusion protein, full …; assay: BLI

Row | Binder | stoichiometry N (SAXS) | Kd (SEC) | other results
1 | full-length tyrosyl-tRNA synthetase G41R mutant (TyrRS^G41R), C-terminal hexahistidine tag (enzyme) MGDAPSPEEKLHLITRNLQEVLGEEKLKEILKERELKIYWRTATTGKPHVAYFVPMSKIADFLKAGCEVTILFADLHAYLDNMKAPWELLELRVSYYENVIKAMLESIGVPLEKLKFIKGTDYQLSKEYTLDVYRLSSVVTQHDSKKAGAEVVKQVEHPLLSGLLYPGLQALDEEYLKVDAQFGGIDQRKIFTFAEKYLPALGYSKRVHLMNPMVPGLTGSKMSSSEEESKIDLLDRKEDVKKKLKKAFCEPGNVENNGVLSFIKHVLFPLKSEFVILRDEKWGGNKTYTAYVDLEKDFAAEVVHPGDLKNSVEVALNKLLDPIREKFNTPALKKLASAAYPDPSKQKPMAKGPAKNSEPEEVIPSRLDIRVGKIITVEKHPDADSLYVEKIDVGEAEPRTVVSGLVQFVPKEELQDRLVVVLCNLKPQKMRGVESQGMLLCASIEGINRQVEPLDPPAGSAPGEHVFVKGYEKGQPDEELKPKKKVFEKLQADFKISEECIAQWKQTNFMTKLGSISCKSLKGGNIS | 2 | ~0.2 µM | 
2 | full-length tyrosyl-tRNA synthetase E196K mutant (TyrRS^E196K), C-terminal hexahistidine tag (enzyme) MGDAPSPEEKLHLITRNLQEVLGEEKLKEILKERELKIYWGTATTGKPHVAYFVPMSKIADFLKAGCEVTILFADLHAYLDNMKAPWELLELRVSYYENVIKAMLESIGVPLEKLKFIKGTDYQLSKEYTLDVYRLSSVVTQHDSKKAGAEVVKQVEHPLLSGLLYPGLQALDEEYLKVDAQFGGIDQRKIFTFAKKYLPALGYSKRVHLMNPMVPGLTGSKMSSSEEESKIDLLDRKEDVKKKLKKAFCEPGNVENNGVLSFIKHVLFPLKSEFVILRDEKWGGNKTYTAYVDLEKDFAAEVVHPGDLKNSVEVALNKLLDPIREKFNTPALKKLASAAYPDPSKQKPMAKGPAKNSEPEEVIPSRLDIRVGKIITVEKHPDADSLYVEKIDVGEAEPRTVVSGLVQFVPKEELQDRLVVVLCNLKPQKMRGVESQGMLLCASIEGINRQVEPLDPPAGSAPGEHVFVKGYEKGQPDEELKPKKKVFEKLQADFKISEECIAQWKQTNFMTKLGSISCKSLKGGNIS | 2 |  | 
3 | full-length tyrosyl-tRNA synthetase, wild type (TyrRS^WT), C-terminal hexahistidine tag (enzyme) MGDAPSPEEKLHLITRNLQEVLGEEKLKEILKERELKIYWGTATTGKPHVAYFVPMSKIADFLKAGCEVTILFADLHAYLDNMKAPWELLELRVSYYENVIKAMLESIGVPLEKLKFIKGTDYQLSKEYTLDVYRLSSVVTQHDSKKAGAEVVKQVEHPLLSGLLYPGLQALDEEYLKVDAQFGGIDQRKIFTFAEKYLPALGYSKRVHLMNPMVPGLTGSKMSSSEEESKIDLLDRKEDVKKKLKKAFCEPGNVENNGVLSFIKHVLFPLKSEFVILRDEKWGGNKTYTAYVDLEKDFAAEVVHPGDLKNSVEVALNKLLDPIREKFNTPALKKLASAAYPDPSKQKPMAKGPAKNSEPEEVIPSRLDIRVGKIITVEKHPDADSLYVEKIDVGEAEPRTVVSGLVQFVPKEELQDRLVVVLCNLKPQKMRGVESQGMLLCASIEGINRQVEPLDPPAGSAPGEHVFVKGYEKGQPDEELKPKKKVFEKLQADFKISEECIAQWKQTNFMTKLGSISCKSLKGGNIS |  | ~0.2 µM | 
4 | RBCC (aa 65–378 of TRIM28) (domain or fragment) CGVCRERLRPEREPRLLPCLHSACSACLGPAAPAAANSSGDGGAAGDGTVVDCPVCKQQCFSKDIVENYFMRDSGSKAATDAQDANQCCTSCEDNAPATSYCVECSEPLCETCVEAHQRVKYTKDHTVRSTGPAKSRDGERTVYCNVHKHEPLVLFCESCDTLTCRDCQLNAHKDHQYQFLEDAVRNQRKLLASLVKRLGDKHATLQKSTKEVRSSIRQVSDVQKRVQVDVKMAILQIMKELNKRGRVLVNDAQKVTEGQQERLERQHWTMTKIQKHQEHILRFASWALESDNNTALLLSKKLIYFQLHRALKM |  |  | binding result [1]: binds; fold increase in binding affinity against TyrRS^WT [2]: 5 fold; fold increase in binding affinity against TyrRS^WT [3]: 5 fold
5 | full-length tyrosyl-tRNA synthetase Δ153-156 deletion mutant (TyrRS^Δ153-156), C-terminal hexahistidine tag (enzyme) MGDAPSPEEKLHLITRNLQEVLGEEKLKEILKERELKIYWGTATTGKPHVAYFVPMSKIADFLKAGCEVTILFADLHAYLDNMKAPWELLELRVSYYENVIKAMLESIGVPLEKLKFIKGTDYQLSKEYTLDVYRLSSVVTQHDSKKAGAEVEHPLLSGLLYPGLQALDEEYLKVDAQFGGIDQRKIFTFAEKYLPALGYSKRVHLMNPMVPGLTGSKMSSSEEESKIDLLDRKEDVKKKLKKAFCEPGNVENNGVLSFIKHVLFPLKSEFVILRDEKWGGNKTYTAYVDLEKDFAAEVVHPGDLKNSVEVALNKLLDPIREKFNTPALKKLASAAYPDPSKQKPMAKGPAKNSEPEEVIPSRLDIRVGKIITVEKHPDADSLYVEKIDVGEAEPRTVVSGLVQFVPKEELQDRLVVVLCNLKPQKMRGVESQGMLLCASIEGINRQVEPLDPPAGSAPGEHVFVKGYEKGQPDEELKPKKKVFEKLQADFKISEECIAQWKQTNFMTKLGSISCKSLKGGNIS |  | ~0.2 µM | 

— paper PMC5737801 (Nucleic Acids Research, 2017)
